{
  "source": "patent US12416018B2",
  "about": "“Regulation of gene expression by aptamer-mediated modulation of alternative splicing” (MEIRAGTX GENE REGULATION LIMITED, priority 2015, dated 2025)",
  "molecules": {"B1": {"name": "Con 2: luciferase with IVS2Δ, altered 5′ss; SEQ ID NO: 2 (nucleic acid)", "DNA": "GATTACACCCGAGGGGGATGATAAAGTAAGCCTATGGGACCCTTGATGTTTTCTTTCCCCTTCTTTTCTATGGTTAAGTTCATGTCATAGGAAGGGGAGAAGTAACAGGGTACACATATTGACCAAATCAGGGTAATTTTGCATTTGTAATTTTAAAAAATGCTTTCTTCTTTTAATATACTTTTTTGTTTATCTTATTTCTAATACTTTCCCTAATCTCTTTCTTTCAGGGCAATAATGATACAATGTATCATGCCTCTTTGCACCATTCTAAAGAATAACAGTGATAATTTCTGGGTTAAGGCAATAGCAATATTTCTGCATATAAATATTTCTGCATATAAATTGTAACTGATGTAAGAGGTTTCATATTGCTAATAGCAGCTACAATCCAGCTACCATTCTGCTTTTATTTTATGGTTGGGATAAGGCTGGATTATTCTGAGTCCAAGCTAGGCCCTTTTGCTAATCATGTTCATACCTCTTATCTTCCTCCCACAGCCGGGCGCGGTCGGTAAAGT", "modifications": "Luci-IVS-Luci in construct Con2"}, "B2": {"name": "DHFR_wtmtSRp40_HP15: DHFR_wtmtSRp40 with 5′ss in hairpin; SEQ ID NO: 56 (nucleic acid)", "DNA": "GAGTAACGCTGTTTCTCTAACTTGTAGGAATGAATTCAGATATTTCCAGAGAATGAAAAAAAAATCTTCAGTAGAAGGTAATGTGGCGAAAGCCACATTACCTTCT", "modifications": "expressed or natural sequence"}, "B3": {"name": "DHFR_wtmtSRp40_HP15x: DHFR_wtmtSRp40 with broken hairpin; SEQ ID NO: 57 (nucleic acid)", "DNA": "B2 DNA with G92A, C93A, C96G, T98A, T99C, A100T, C101G, C102A, T103G, C105A", "modifications": "expressed or natural sequence"}, "B4": {"name": "DHFR_Con15ss_HP15: DHFR_Con15ss with 15 bp hairpin embedding the 5′ss; SEQ ID NO: 54 (nucleic acid)", "DNA": "GAGTAACGCTGTTTCTCTAACTTGTAGGAATGAATTCAGATATTTCCAGAGAATGACCACAACCTCTTCAGTAGAGGGTGAGTTGGCGAAAGCCAACTCACCCTCT", "modifications": "expressed or natural sequence"}, "B5": {"name": "DHFR_Con15ss_HP15x: 15 bp hairpin with broken stem; SEQ ID NO: 55 (nucleic acid)", "DNA": "B4 DNA with G92A, C93A, A96G, T98A, C99T, C101A, C102A, C103G, C105A", "modifications": "expressed or natural sequence"}, "B6": {"name": "Con 4: luciferase with IVS2Δ, weak 5′ss; SEQ ID NO: 4 (nucleic acid)", "DNA": "AAGAGCTGTTTCTGAGGAGGTGTGGCTATGGGACCCTTGATGTTTTCTTTCCCCTTCTTTTCTATGGTTAAGTTCATGTCATAGGAAGGGGAGAAGTAACAGGGTACACATATTGACCAAATCAGGGTAATTTTGCATTTGTAATTTTAAAAAATGCTTTCTTCTTTTAATATACTTTTTTGTTTATCTTATTTCTAATACTTTCCCTAATCTCTTTCTTTCAGGGCAATAATGATACAATGTATCATGCCTCTTTGCACCATTCTAAAGAATAACAGTGATAATTTCTGGGTTAAGGCAATAGCAATATTTCTGCATATAAATATTTCTGCATATAAATTGTAACTGATGTAAGAGGTTTCATATTGCTAATAGCAGCTACAATCCAGCTACCATTCTGCTTTTATTTTATGGTTGGGATAAGGCTGGATTATTCTGAGTCCAAGCTAGGCCCTTTTGCTAATCATGTTCATACCTCTTATCTTCCTCCCACAGCCTTCAGGATTACAAGATTCAA", "modifications": "Luci-IVS-Luci in construct Con4"}, "B7": {"name": "Con 3: luciferase with IVS2Δ, altered 5′ss; SEQ ID NO: 3 (nucleic acid)", "DNA": "TTCTTCGCCAAAAGCAGTAAGTCTATGGGACCCTTGATGTTTTCTTTCCCCTTCTTTTCTATGGTTAAGTTCATGTCATAGGAAGGGGAGAAGTAACAGGGTACACATATTGACCAAATCAGGGTAATTTTGCATTTGTAATTTTAAAAAATGCTTTCTTCTTTTAATATACTTTTTTGTTTATCTTATTTCTAATACTTTCCCTAATCTCTTTCTTTCAGGGCAATAATGATACAATGTATCATGCCTCTTTGCACCATTCTAAAGAATAACAGTGATAATTTCTGGGTTAAGGCAATAGCAATATTTCTGCATATAAATATTTCTGCATATAAATTGTAACTGATGTAAGAGGTTTCATATTGCTAATAGCAGCTACAATCCAGCTACCATTCTGCTTTTATTTTATGGTTGGGATAAGGCTGGATTATTCTGAGTCCAAGCTAGGCCCTTTTGCTAATCATGTTCATACCTCTTATCTTCCTCCCACAGCTCTGATTGACAAATACG", "modifications": "Luci-IVS-Luci in construct Con3"}, "B8": {"name": "DHFR_wt: Con 1 with wild type human DHFR exon 2, native 5′ss; SEQ ID NO: 47 (nucleic acid)", "DNA": "GAGTAACGCTGTTTCTCTAACTTGTAGGAATGAATTCAGATATTTCCAGAGAATGACCACAACCTCTTCAGTAGAAGGTAATGTG", "modifications": "expressed or natural sequence"}, "B9": {"name": "DHFR_wtmtSRp40: DHFR exon 2 with mutated SRp40 binding site; SEQ ID NO: 51 / 58 (nucleic acid)", "DNA 1": "B8 DNA with C57A, C58A, C60A, C63A, C64A", "DNA 2": "GAGTAACGCTGTTTCTCTAACTTGTAGGAATGAATTCAGATATTTCCAGAGAATGAAAAAAAAATCTTCAGTAGAAGGTAATGT", "modifications": "expressed or natural sequence"}, "B10": {"name": "DHFR_wtSC35hnRNPA1: DHFR exon 2, SC35 site replaced by hnRNP A1 binding site; SEQ ID NO: 53 (nucleic acid)", "DNA": "B8 DNA with A33T, T35G, T36G, C37G", "modifications": "expressed or natural sequence"}, "B11": {"name": "DHFR_wt5ssC: DHFR exon 2 with native 5′ss four nucleotides mutated to C; SEQ ID NO: 48 (nucleic acid)", "DNA": "B8 DNA with G78C, T79C, A80C, A81C", "modifications": "expressed or natural sequence"}, "B12": {"name": "DHFR_Con45ss: DHFR exon 2 with weak 5′ss from Con 4; SEQ ID NO: 50 (nucleic acid)", "DNA": "B8 DNA with A75G, A80G, A81T, T82G", "modifications": "expressed or natural sequence"}, "B13": {"name": "DHFR_wtStrSC35: DHFR exon 2 with stronger SC35 binding site; SEQ ID NO: 52 (nucleic acid)", "DNA": "B8 DNA with A33G, A34C, T35C, T36C, A38T", "modifications": "expressed or natural sequence"}, "B14": {"name": "DHFR_Con15ss: DHFR exon 2 with 5′ss from Con 1; SEQ ID NO: 49 (nucleic acid)", "DNA": "B8 DNA with A76G, A80G, T82G, G83T", "modifications": "expressed or natural sequence"}, "B15": {"name": "Con 1: luciferase gene with truncated human beta-globin intron 2 (IVS2Δ), original IVS2 splice sites; SEQ ID NO: 1 (nucleic acid)", "DNA": "GAGGTTCCATCTGCCAGGTATCAGGGTGAGTCTATGGGACCCTTGATGTTTTCTTTCCCCTTCTTTTCTATGGTTAAGTTCATGTCATAGGAAGGGGAGAAGTAACAGGGTACACATATTGACCAAATCAGGGTAATTTTGCATTTGTAATTTTAAAAAATGCTTTCTTCTTTTAATATACTTTTTTGTTTATCTTATTTCTAATACTTTCCCTAATCTCTTTCTTTCAGGGCAATAATGATACAATGTATCATGCCTCTTTGCACCATTCTAAAGAATAACAGTGATAATTTCTGGGTTAAGGCAATAGCAATATTTCTGCATATAAATATTTCTGCATATAAATTGTAACTGATGTAAGAGGTTTCATATTGCTAATAGCAGCTACAATCCAGCTACCATTCTGCTTTTATTTTATGGTTGGGATAAGGCTGGATTATTCTGAGTCCAAGCTAGGCCCTTTTGCTAATCATGTTCATACCTCTTATCTTCCTCCCACAGCAAGGATATGGGCTCACTGAGACTACATCAGCTATTCT", "modifications": "Luci-IVS-Luci in construct Con1 Human beta- globin intron 2 containing a deletion (IVS2) is in lowercase and flanking luciferase sequence is in uppercase."}},
  "tested_on": "firefly luciferase gene expression in HEK 293 cells",
  "test": "Firefly luciferase assay of HEK 293 cells transfected with splicing / Intron-Exon-Intron constructs (no ligand)",
  "assay_type": "cell-based",
  "procedure": "Transfection: 3.5×10^4 HEK 293 cells were plated in 96-well flat bottom plate the day before transfection. Plasmid DNA (500 ng) was added to a tube or a 96-well U-bottom plate. Separately, TransIT-293 reagent (Mirus; 1.4 uL) was added to 50 μL Opti-mem I media (Life Technologies), and allowed to sit for 5 minutes at room temperature (RT). Then, 50 μL of this diluted transfection reagent was added to the DNA, mixed, and incubated at room temperature (“RT”) for 20 min. Finally, 7 μL of this solution was added to a well of cells in the 96-well plate.\nFirefly luciferase assay of cultured cells: 24 hours after media change, plates were removed from the incubator, and equilibrated to RT for several minutes on a lab bench, then aspirated. Glo-lysis buffer (Promega, 100 μL, RT) was added, and the plates allowed to remain at RT for at least 5 minutes. Then, the well contents were mixed by 50 μL trituration, and 20 μL of each sample was mixed with 20 μL of bright-glo reagent (Promega) that had been diluted to 10% in glo-lysis buffer. 96 wells were spaced on an opaque white 384-well plate. Following a 5 min incubation at RT, luminescence was measured using Tecan machine with 500 mSec read time. The luciferase activity was expressed as mean relative light unit (RLU)±S.D.\nThe constructs were verified by DNA sequencing (Genewiz). DNA was transfected in HEK 293 cells and assayed for luciferase activity as described in Example 1.\nSequences containing the DHFR exon 2 with native 3′ and 5′ ss sequences, in which the 5′ss was embedded in a hairpin structure were synthesized (IDT), and cloned into the indicated vector using Golden Gate cloning strategy (NEB). Constructs were transfected into HEK 293 cells and assayed for luciferase activity as described in Example 1.",
  "note": "Residue numbers refer to the chain shown, from its start. “Also recorded” adds a separate entry of the source. Read-outs that look alike come from different tables or passages of the source.",
  "data": [
    {"molecule": "B1", "values": [
      {"measurement": "luciferase expression relative to control constructs (in words)", "result": "expression levels similar to Con 1 and Con 8"}
    ]},
    {"molecule": "B2", "values": [
      {"measurement": "luciferase expression relative to control constructs (in words)", "result": "restored luciferase expression"}
    ]},
    {"molecule": "B3", "values": [
      {"measurement": "luciferase expression relative to control constructs (in words)", "result": "blocked luciferase expression; also recorded: prevents expression of luciferase"}
    ]},
    {"molecule": "B4", "values": [
      {"measurement": "luciferase expression relative to control constructs (in words)", "result": "allows luciferase expression"},
      {"measurement": "luciferase expression relative to control constructs (in words)", "setting": "listed as DHFR_Con 15ss_HP15", "result": "completely restores luciferase expression to the level of Con 1"}
    ]},
    {"molecule": "B5", "values": [
      {"measurement": "luciferase expression relative to control constructs (in words)", "result": "not able to restore luciferase expression; also recorded: does not restore luciferase expression"}
    ]},
    {"molecule": "B6", "values": [
      {"measurement": "luciferase expression relative to control constructs (in words)", "result": "significantly reduce luciferase expression"}
    ]},
    {"molecule": "B7", "values": [
      {"measurement": "luciferase expression relative to control constructs (in words)", "result": "expression levels similar to Con 1 and Con 8"}
    ]},
    {"molecule": "B8", "values": [
      {"measurement": "fold lower luciferase expression compared with Con 1", "result": 116, "unit": "fold"}
    ]},
    {"molecule": "B9", "values": [
      {"measurement": "fold lower luciferase expression compared with Con 1", "result": "2,982 fold"},
      {"measurement": "luciferase expression relative to control constructs (in words)", "result": "does not express luciferase"},
      {"measurement": "fold lower luciferase expression compared with Con 1", "setting": "listed as DHFR_mtSRp40", "result": 2982, "unit": "fold"}
    ]},
    {"molecule": "B10", "values": [
      {"measurement": "fold increase in luciferase expression compared to the wild type DHFR exon 2", "result": 4.3, "unit": "fold"},
      {"measurement": "luciferase expression relative to control constructs (in words)", "result": "increased luciferase expression"}
    ]},
    {"molecule": "B11", "values": [
      {"measurement": "luciferase expression relative to control constructs (in words)", "result": "restored to the level of Con 1"}
    ]},
    {"molecule": "B12", "values": [
      {"measurement": "luciferase expression relative to control constructs (in words)", "result": "luciferase expression is increased"}
    ]},
    {"molecule": "B13", "values": [
      {"measurement": "fold lower luciferase expression compared with Con 1", "result": 139, "unit": "fold"}
    ]},
    {"molecule": "B14", "values": [
      {"measurement": "fold lower luciferase expression compared with Con 1", "result": 545, "unit": "fold"},
      {"measurement": "luciferase expression relative to control constructs (in words)", "result": "abolishes luciferase expression compared to Con 1; also recorded: efficiently suppresses luciferase expression"}
    ]},
    {"molecule": "B15", "values": [
      {"measurement": "luciferase expression relative to control constructs (in words)", "result": "did not affect gene expression"}
    ]}
  ]
}
